The text below walks through data of doi:10.1101/2025.07.16.665076, “GPLD1 is as a scavenger carrier mediating lysosomal degradation of extracellular aberrant proteins” (bioRxiv, 2025).

The assay addresses T1, GPLD1-mCherry-sfGFP-His (GPLD1-RG) (human, UniProt P80108 24-840).
T1 construct: signal peptide in the construct; glycosylphosphatidylinositol-specific phospholipase D1 (GPLD1), human, full length, amplified from HepG2 cDNA; The fusion is said to be 160 kDa; also called GPLD1-RFP-GFP; GPLD1-RG-His; not shown: mCherry, C-terminal, kept; sfGFP, C-terminal, kept; His, C-terminal, kept
T1 sequence (looked up): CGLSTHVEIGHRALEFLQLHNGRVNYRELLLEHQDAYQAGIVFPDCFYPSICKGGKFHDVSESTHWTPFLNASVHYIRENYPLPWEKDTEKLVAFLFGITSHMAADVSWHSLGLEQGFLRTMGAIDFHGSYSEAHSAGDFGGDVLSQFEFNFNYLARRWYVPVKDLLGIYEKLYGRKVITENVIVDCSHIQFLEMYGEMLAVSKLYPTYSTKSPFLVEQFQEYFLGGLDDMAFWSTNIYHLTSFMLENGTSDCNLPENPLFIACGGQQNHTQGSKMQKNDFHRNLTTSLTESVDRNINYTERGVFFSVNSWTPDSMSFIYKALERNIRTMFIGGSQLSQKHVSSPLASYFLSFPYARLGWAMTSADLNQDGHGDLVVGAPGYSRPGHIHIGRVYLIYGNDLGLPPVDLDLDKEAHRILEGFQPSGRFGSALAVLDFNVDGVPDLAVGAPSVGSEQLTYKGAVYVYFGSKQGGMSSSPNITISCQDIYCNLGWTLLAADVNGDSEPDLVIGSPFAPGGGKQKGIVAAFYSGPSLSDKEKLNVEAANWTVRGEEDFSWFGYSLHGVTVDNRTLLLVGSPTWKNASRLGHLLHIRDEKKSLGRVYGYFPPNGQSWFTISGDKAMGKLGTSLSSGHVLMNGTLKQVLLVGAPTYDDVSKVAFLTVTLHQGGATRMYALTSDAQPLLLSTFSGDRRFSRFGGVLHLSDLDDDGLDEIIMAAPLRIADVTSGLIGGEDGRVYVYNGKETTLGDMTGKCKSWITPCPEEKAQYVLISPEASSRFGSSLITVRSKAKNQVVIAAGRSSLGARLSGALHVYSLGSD
The experiment in a line: co-IP; purified RG-tagged protein (GPLD1-RG 40 nM) and ALFA-tagged substrate (His-ALFA-SAA1 500 nM) in PBS, 37°C with shaking for 2 h, aggregates spun out; ALFA nanobody beads at 4°C for 2 h, four washes with PBS; immunoblot. The note with it: both partners purified.

B1: His-ALFA-SAA1-Full length (SAA1-F) (natural protein, human, UniProt P0DJI8 19-122, looked up)
chain: RSFFSFLGEAFDGARDMWRAYSDMREANYIGSDKYFHARGNYDAAKRGPGGAWAAEVITDARENIQRFFGHGAEDSLADQAANEWGRSGKDPNHFRPAGLPEKY
notes: serum amyloid A1 (SAA1), human, amino acids 19-122; Used in native form in the immunoprecipitation; the purification of the native form is not described; also called native ALFA-SAA1-F (full-length); source: E. coli BL21(DE3) pLysS, recombinant; not shown: His, N-terminal, kept; ALFA, N-terminal, kept
As to B1, the binding result is given as “binds”.

B2: His-ALFA-SAA1-N terminus (SAA1-N) (domain or fragment, human, UniProt P0DJI8 19-94, looked up)
chain: RSFFSFLGEAFDGARDMWRAYSDMREANYIGSDKYFHARGNYDAAKRGPGGAWAAEVITDARENIQRFFGHGAEDS
notes: serum amyloid A1 (SAA1), human, amino acids 19-94: the N-terminal 76 residues, core amyloidogenic fragment; Prepared in 8 M urea-denatured form for all experiments; it aggregates on incubation in PBS; also called His-ALFA-tagged SAA1-N; source: E. coli BL21(DE3) pLysS, purified from inclusion bodies (Co-NTA, 8 M urea), stored in urea; not shown: His, N-terminal, kept; ALFA, N-terminal, kept
B2: the binding result is “binds”.
